Reference: paper PMC6203816 (Nature Communications, 2018)

Target: C1080 envelope on concentrated pseudovirus particles (HIV-1 strain C1080 (clone C1080.c3 …, UniProt I6NF57, strain))
Experiment: ELISA
Settings: one partner purified

B1: CAP228-3D IgG1 (antibody, V domains shown)
VH: EVQLVQSGAEVKKPGESLKISCKGFGYSFSTYWIAWVRQMPGKGLEWMGMIYPGDSDTKYSPSLQGQVTISGDKSISTAYLQWSSLKASDTAMYYCARLLNNYDSSGFLYWYLDLWGRGTLVTVSS
VL: NFMLTQPHSVSESPGKTVTISCTRSSGSIASDYVQWYQQRPGSSPTTVIYEDNQRPSGVPDRFSGSIDSSSNSASLTISGLKTEDEADYYCQSYDMTNHNWVFGGGTKLTVL
binding result: binds

B2: 830 A (antibody, V domains shown)
VH: QVQLQQWGPGLLKPSETLSLTCAVYGGSFGRYYWSWIRQSSGEGLEWLGQIDHTGSTTYNPSLKGRVTISIDSSTNQFSLKVTSVIAADTAVYYCARAPSGYPGVSLYQYYGLDVWGQGTTVTVSS
VL: DTVMTQSPATLSVSPGERVTLSCRASQIINTNLAWYQKRPGQAPRLLIYAASARATGIPARFSGSGSGTEFTLTISGLQSEDSAVYYCQQYKHWPPYTFGRGTKLEIR
notes: also called V2i mAb 830 A
binding result: binds
